According to patent US6207816, “High affinity oligonucleotide ligands to growth factors” (NeXstar Pharmaceuticals, Inc.):

Experiments:
KGF (hKGF) [1] = target: T1, KGF (hKGF) (Homo sapiens, UniProt P21781 P21781:32-194); experiment: filter; DPBS 37 C; settings: tags: Upstate Biotechnology
T1 sequence: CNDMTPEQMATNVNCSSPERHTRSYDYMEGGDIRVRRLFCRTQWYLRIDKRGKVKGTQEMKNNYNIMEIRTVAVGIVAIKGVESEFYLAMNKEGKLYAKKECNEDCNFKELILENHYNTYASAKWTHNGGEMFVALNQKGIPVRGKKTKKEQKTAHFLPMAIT

KGF (hKGF) [2] = target: T1, KGF (hKGF); experiment: competition; PC-3 assay; settings: tags: Upstate Biotechnology
Method: PC-3 cells were plated in 24-well plates at about 10^5 cells per well. Following growth for […], the cells were serum starved for 24 hours, washed two times with 500 µl of cold DPBS, and then incubated with 500 µl binding buffer (BB1; DPBS, 0.5 mM MgCl_2, 0.2% BSA. 0.02% sodium azide) containing various concentrations of ^125I-labeled KGF ranging from 0 to 0.8 nM. Following 3–3.5 hour incubation at 4° C., the binding mixes were aspirated and the well-adhered cells were washed two times with 1 ml BB1 and once with 1 ml BB1 supplemented with 0.5M NaCl. The remaining bound labeled hKGF was solubilized in 600 µl 0.5% SDS/0.1M NaOH and counted in a gamma counter (Beckmann). Nonspecific binding was determined in the presence of 100 fold molar excess of unlabeled hKGF. For competition assays, the labeled hKGF was kept constant at 0.3 nM, and varying concentrations of competitor molecules were included in the binding reactions ranging from 0–1,000 nM. Binding curves were fitted to the equation: […]
A subset of these ligands was tested on the NIH3T3/FGFR-2. In determining the Ki values, it was assumed that 3T3 cells have 500,000 binding sites per cell and PC-3 cells have 5,000 binding sites per cell.

TGF-beta1 [3] = target: T2, TGF-beta1 (Homo sapiens, UniProt P01137 P01137:279-390); experiment: cell_activity; second value 103 nM; settings: tags: Genentech; chain copies: 2
Method: (§1) Mink lung epithelial cells (MLEC) carrying the Pai1/luc construct were maintained in DME containing 10% fetal bovine serum and 400 μg/ml G418. MLEC-Pai1/luc cells were plated at 3.2×10^4 cells per well in a 96 well Falcon plate, in 100 μl of DME+10% fetal bovine serum overnight. Media was made from autoclaved water. The cells were washed three times (100 μl) in serum free DME plus Solution A (1:1). Solution A is 30 mM Hepes pH 7.6, 10 mM glucose, 3.0 mM KCl, 131 mM NaCl, 1.0 mM disodium phosphate. Samples (100 μl) were added in DME containing 20 mM Hepes pH 7.5, and 0.1% BSA (Fluka, radioimmunoassay grade). All samples were in triplicate. After six hours at 37° C. in a 5% CO_2 incubator the media was removed and cells were washed three times (100 μl each) in cold PBS. Lysis buffer (75 μl) (Analytical Luminescence Laboratory) was added and the plates incubated on ice for 20 min. The plates were sealed and frozen at −80° C. until assayed. Samples (25 μl) were assayed for luciferase activity with the Enhanced Luciferase Assay Kit from Analytical Luminescence Laboratory (San Diego, Calif., USA) according to the manufacturers instructions using the Berthold Microlumat LB96P luminometer.
(§2) Ligands tested for inhibition of TGFβ1 activity were tested at a minimum of five concentrations. […]

TGF-beta1 [4] = target: T2, TGF-beta1; experiment: cell_activity; second value 298 nM; settings: tags: Genentech; chain copies: 2
Method: as §1, §2

TGF-beta1 [5] = target: T2, TGF-beta1; experiment: filter; n=3; KRH buffer 37 C; IC50 25 ± 14 nM in PAI-luciferase assay; settings: tags: Genentech or R&D Systems; chain copies: 2
TGF-beta1 [6] = target: T2, TGF-beta1; experiment: filter; boundary experiment; settings: tags: Genentech; chain copies: 2
PDGF-AB [7] = target: T3, PDGF-AB (Homo sapiens, UniProt P04085;P01127 P04085:87-211,P01127:82-190); experiment: filter; 20t binds within factor 2 of full length; settings: tags: R&D Systems
Method: (§3) D. Determination of the Apparent Equilibrium Dissociation Constants and the Dissociation Rate Constants The binding of ssDNA ligands at low concentrations to varying concentrations of PDGF was determined by the nitrocellulose filter binding method as described (Green et al., (1995) *Chemistry and Biology* 2: 683–695). The concentrations of PDGF stock solutions (in PBS) were determined from the absorbance readings at […] using the following $e280$ values calculated from the amino acid sequences (Gill, S. C., and von Hippel, P. H. (1989) *Anal. Biochem.* 182: 319–326): 19,500 M^-1cm^-1 for PDGF-AA, 15,700 M^-1cm^-1 for PDGF-AB and 11,800 M^-1cm^-1 for PDGF-BB. ssDNA for all binding experiments were purified by electrophoresis on 8% (>80 nucleotides) or 12% (<40 nucleotides) polyacrylamide/7 M urea gels. All ssDNA ligands were heated at 90° C. in binding buffer at high dilution ($\approx$1 nM) for 2 min and cooled on ice prior to frier dilution into the protein solution. The binding mixtures were typically incubated for 15 min at 37° C. before partitioning on nitrocellulose filters.

PDGF-AB [8] = target: T3, PDGF-AB; experiment: filter; 41t binds within factor 2 of full length; settings: tags: R&D Systems
Method: as §3

PDGF-BB [9] = target: T4, PDGF-BB (Homo sapiens, UniProt P01127 P01127:82-190); experiment: competition; no effect on receptor binding or mitogenesis; settings: tags: R&D Systems; chain copies: 2; stem-loop
Method: After incubation for 24 h at 37° C., ^3H-radioactivity incorporated into DNA was determined using a β-counter.

PDGF-AB [10] = target: T3, PDGF-AB; experiment: filter; thrombin aptamer control; settings: tags: R&D Systems, E. coli; predicted stem-loop
PDGF-AA = PDGF-AA (Homo sapiens, UniProt P04085 P04085:87-211); experiment: filter; 37 C; comparable to random DNA; settings: tags: R&D Systems, E. coli, long form A-chain; chain copies: 2; label: 5'-32P; three-way helix junction
Method: as §3
(§4) The fraction of ^32P 5' end-labeled DNA ligands bound to varying concentrations of PDGF was determined by the nitrocellulose filter binding method. Minimal ligands tested were 20t (○), 36t (Δ), and 41t (□). […]

PDGF-BB [11] = target: T4, PDGF-BB; experiment: competition; 125I-PDGF-BB binding to PDGF alpha-receptor on PAE cells; settings: tags: R&D Systems; chain copies: 2; three-way junction
PDGF-BB [12] = target: T4, PDGF-BB; experiment: filter; 37 C, PBSM + 0.01% HSA; high affinity component; settings: tags: R&D Systems, E. coli; chain copies: 2; label: 5'-32P; three-way helix junction
Method: as §3, §4

PDGF-AB [13] = target: T3, PDGF-AB; experiment: as above; settings: tags: R&D Systems, E. coli; label: 5'-32P; three-way helix junction
Method: as §3, §4

T2 sequence (P01137 279-390, one chain of several): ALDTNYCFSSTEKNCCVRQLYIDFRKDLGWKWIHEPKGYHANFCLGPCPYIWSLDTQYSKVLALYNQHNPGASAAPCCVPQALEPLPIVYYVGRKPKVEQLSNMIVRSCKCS
T4 sequence (P01127 82-190, one chain of several): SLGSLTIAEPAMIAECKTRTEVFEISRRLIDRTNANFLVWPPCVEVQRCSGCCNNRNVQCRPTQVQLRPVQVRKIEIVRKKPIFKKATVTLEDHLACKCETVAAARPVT
T3 sequence (P01127 82-190, chain 2 of 2, other chains not shown): as the sequence (P01127 82-190, one chain of several) above

B1: 4N (ssRNA)
RNA: GGGAGGACGAUGCGGGUGGUGAAGAGGUACCGGAAUUGCUAAAGAUACCACGGCCCAGACGACUCGCCCGA
modifications: 2'-NH2 pyrimidines
Binder B1 has a Kd (KGF (hKGF) [1]) of 0.75 nM.

B2: 4N (K4N) (ssRNA)
RNA: GGGAGGACGAUGCGGGUGGUGAAGAGGUACCGGAAUUGCUAAAGAUACCACGGCCCAGACGACUCGCCCGA
modifications: 2'-NH2 pyrimidines
B2 showed an IC50 (KGF (hKGF) [2]) of 70 nM.

B3: lib2-6-1 (ssRNA)
RNA: GGGGGAGAACGCGGAUCCUGUCUCCACCGCCGAUACUGGGGUUCCUGGGGCCCCUCCAUGCAGGAGGGGGGUGGUUCGGAGAAAGCUUCGCUCUAGAUCUCCCUUUAGUGAGGGUUA
modifications: 2'-NH2 U, 2'-F C
B3 was tested, and the IC50 (TGF-beta1 [3]) was 112 nM.

B4: 10F (ssRNA)
RNA: GGGAGGACGAUGCGGGACCAGAUGGCGGAUUUUUCAGCAAUCCUCCCCCCGCUGCCCAGACGACUCGCCCGA
modifications: 2'-F pyrimidines
Work on B4 yielded a Kd (KGF (hKGF) [1]) of 0.47 nM.

B5: 10F (K10F) (ssRNA)
RNA: GGGAGGACGAUGCGGGACCAGAUGGCGGAUUUUUCAGCAAUCCUCCCCCCGCUGCCCAGACGACUCGCCCGA
modifications: 2'-F pyrimidines
Work on B5 yielded an IC50 (KGF (hKGF) [2]) of 30 nM.

B6: lib2-6-1-81 (ssRNA)
RNA: GGGGGAGAACGCGGAUCCUGUCUCCACCGCCGAUACUGGGGUUCCUGGGGCCCCUCCAUGCAGGAGGGGGGUGGUUCGGAG
modifications: 2'-NH2 U, 2'-F C
Binder B6 has an IC50 (TGF-beta1 [4]) of 201 nM.

B7: 47N (ssRNA)
RNA: GGGAGGACGAUGCGGGAAGGGUAGGAAGGUCAAGAGGAAACAGCGCUUCGGGGGUGCAGACGACUCGCCCGA
modifications: 2'-NH2 pyrimidines
Binder B7 has a Kd (KGF (hKGF) [1]) of 1.76 nM.

B8: lib3-13 (ssRNA)
RNA: GGGGGAGAACGCGGAUCCGAGCAAUCCCAGGCGCAUAGCUUCCGAGUAGACAGGAGGGAGGGGUGGAUGUGGCGUCUACUCGGUGUCGUGAAGCUUCGCUCUAGAUCUCCCUUUAGUGAGGGUUA
modifications: 2'-NH2 pyrimidines
B8 showed a Kd (TGF-beta1 [5]) of 0.83 nM.

B9: lib3-13-79 (ssRNA)
RNA: GGGGGAGAACGCGGAUCCGAGCAAUCCCAGGCGCAUAGCUUCCGAGUAGACAGGAGGGAGGGGUGGAUGUGGCGUCUAC
B9: binds (TGF-beta1 [6]).

B10: ligand 20 full length (ssDNA)
DNA: ATCCGCCTGATTAGCGATACTATGGGAGGGCGCGTTCTTCGTGGTTACTTTTAGTCCCGACTTGAGCAAAATCACCTGCAGGGG
B10: binds (PDGF-AB [7]).

B11: ligand 41 full length (ssDNA)
DNA: ATCCGCCTGATTAGCGATACTCAGGGCACTGCAAGCAATTGTGGTCCCAATGGGCTGAGTACTTGAGCAAAATCACCTGCAGGGG
B11: binds (PDGF-AB [8]).

B12: T39 (ssDNA)
DNA: CAGTCCGTGGTAGGGCAGGTTGGGGTGACTTCGTGGAA
modifications: 3'-3' inverted T
In the case of B12, the binding result (PDGF-BB [9]) is reported as “no binding” and the Kd (PDGF-AB [10]) is reported as 230 nM.

B13: 20t (ssDNA)
DNA: TGGGAGGGCGCGTTCTTCGTGGTTACTTTTAGTCCCG
modifications: 3'-3' inverted T
Binder B13 has a Kd (PDGF-AA) of 47 nM, an IC50 (PDGF-BB [11]) of ~1 nM and a Kd (PDGF-BB [12]) of 0.127 nM. It also gave a Kd (PDGF-AB [13]) of 0.147 nM.

B14: lib3-13-(38-123) (ssRNA)
RNA: GCUUCCGAGUAGACAGGAGGGAGGGGUGGAUGUGGCGUCUACUCGGUGUCGUGAAGCUUCGCUCUAGAUCUCCCUUUAGUGAGGGU
B14: binds (TGF-beta1 [6]).
